Experimental data reported in paper PMC6003364.

Columns and labels:
[1] = target: periplasmic domain of TraE (plasmid pKM101); assay: cross-linking
[2] = target: N-terminally His-tagged, full-length TraE (VirB8 homolog) from plasmid pKM101 (plasmid pKM101); assay: negative-stain EM

| Substance | stoichiometry N [1] | stoichiometry N [2] |
| --- | --- | --- |
| periplasmic domain of TraE (domain or fragment) | 2 |  |
| N-terminally His-tagged, full-length TraE (VirB8 homolog) from plasmid pKM101 (natural protein) |  | 6 |
